{"source": "patent US5217867", "key": {"[1]": {"system": "hGR G462 462 to Gly (Homo sapiens)", "assay": "pulldown", "details": "relative to hGR-SB"}, "[2]": {"system": "hGR G480 480 to Gly (Homo sapiens)", "assay": "pulldown", "details": "relative to hGR-SB"}, "[3]": {"system": "hGR G447 447 to Gly (Homo sapiens)", "assay": "pulldown", "details": "relative to hGR-SB"}, "[4]": {"system": "hGR G423 423 to Gly (Homo sapiens)", "assay": "pulldown", "details": "relative to hGR-SB"}, "[5]": {"system": "hGR G455 455 to Gly (Homo sapiens)", "assay": "pulldown", "details": "relative to hGR-SB; may be unstable in vitro"}, "[6]": {"system": "hGR G457 457 to Gly (Homo sapiens)", "assay": "pulldown", "details": "relative to hGR-SB"}, "[7]": {"system": "hGR delta450-487 deletion between residues 450 and 487 (printed positions are the non-deleted junction residues) (Homo sapiens)", "assay": "pulldown", "details": "relative to hGR-SB"}, "[8]": {"system": "hGR G426 D426G (Homo sapiens)", "assay": "pulldown", "details": "relative to hGR-SB"}, "[9]": {"system": "hGR G432 432 to Gly (Homo sapiens)", "assay": "pulldown", "details": "relative to hGR-SB"}, "[10]": {"system": "hGR G467 467 to Gly (Homo sapiens)", "assay": "pulldown", "details": "relative to hGR-SB; may be unstable in vitro"}, "[11]": {"system": "hGR G441 441 to Gly (Homo sapiens)", "assay": "pulldown", "details": "relative to hGR-SB"}, "[12]": {"system": "hGR G444 444 to Gly (Homo sapiens)", "assay": "pulldown", "details": "relative to hGR-SB"}, "[13]": {"system": "hGR G450 450 to Gly (Homo sapiens)", "assay": "pulldown", "details": "relative to hGR-SB"}, "[14]": {"system": "hGR G474 474 to Gly (Homo sapiens)", "assay": "pulldown", "details": "relative to hGR-SB"}, "[15]": {"system": "hGR G481 481 to Gly (Homo sapiens)", "assay": "pulldown", "details": "relative to hGR-SB"}, "[16]": {"system": "hGR G486 486 to Gly (Homo sapiens)", "assay": "pulldown", "details": "relative to hGR-SB; may be unstable in vitro (10% activity in cells)"}, "[17]": {"system": "hGR G460 460 to Gly (Homo sapiens)", "assay": "pulldown", "details": "relative to hGR-SB"}, "[18]": {"system": "hGR delta420-451 deletion between residues 420 and 451 (printed positions are the non-deleted junction residues) (Homo sapiens)", "assay": "pulldown", "details": "relative to hGR-SB"}, "[19]": {"system": "hGR G424 424 to Gly (Homo sapiens)", "assay": "pulldown", "details": "relative to hGR-SB"}, "[20]": {"system": "hGR G446 446 to Gly (Homo sapiens)", "assay": "pulldown", "details": "relative to hGR-SB; may be unstable in vitro"}, "[21]": {"system": "hGR G433 433 to Gly (Homo sapiens)", "assay": "pulldown", "details": "relative to hGR-SB"}, "[22]": {"system": "hGR G438 438 to Gly (Homo sapiens)", "assay": "pulldown", "details": "relative to hGR-SB"}, "[23]": {"system": "hGR G442 K442G (Homo sapiens)", "assay": "pulldown", "details": "relative to hGR-SB; binds but transcriptionally inactive"}, "[24]": {"system": "hGR G465 465 to Gly (Homo sapiens)", "assay": "pulldown", "details": "relative to hGR-SB"}, "[25]": {"system": "hGR G437 437 to Gly (Homo sapiens)", "assay": "pulldown", "details": "relative to hGR-SB"}, "[26]": {"system": "hGR G463 463 to Gly (Homo sapiens)", "assay": "pulldown", "details": "relative to hGR-SB"}, "[27]": {"system": "hGR G453 453 to Gly (Homo sapiens)", "assay": "pulldown", "details": "relative to hGR-SB"}, "[28]": {"system": "hGR G470 470 to Gly (Homo sapiens)", "assay": "pulldown", "details": "relative to hGR-SB"}, "[29]": {"system": "hGR G479 479 to Gly (Homo sapiens)", "assay": "pulldown", "details": "relative to hGR-SB"}, "[30]": {"system": "hGR G473 473 to Gly (Homo sapiens)", "assay": "pulldown", "details": "relative to hGR-SB"}, "[31]": {"system": "hGR G476 476 to Gly (Homo sapiens)", "assay": "pulldown", "details": "relative to hGR-SB"}, "[32]": {"system": "hGR G477 477 to Gly (Homo sapiens)", "assay": "pulldown", "details": "relative to hGR-SB"}, "[33]": {"system": "hGR-SB (human glucocorticoid receptor, wild-type equivalent) (Homo sapiens)", "assay": "pulldown", "details": "immunoprecipitation DNA binding, reference"}, "[34]": {"system": "hGR G445 445 to Gly (Homo sapiens)", "assay": "pulldown", "details": "relative to hGR-SB"}, "[35]": {"system": "hGR G421 421 to Gly (Homo sapiens)", "assay": "pulldown", "details": "relative to hGR-SB"}, "[36]": {"system": "hGR G471 471 to Gly (Homo sapiens)", "assay": "pulldown", "details": "relative to hGR-SB"}, "[37]": {"system": "hGR G431 C431G (Homo sapiens)", "assay": "pulldown", "details": "relative to hGR-SB"}, "[38]": {"system": "rTRalpha-Bm+ (rat thyroid hormone receptor alpha) BamHI linker at amino acid 21 (Rattus norvegicus), P63059-2", "sequence (P63059 whole entry, looked up)": "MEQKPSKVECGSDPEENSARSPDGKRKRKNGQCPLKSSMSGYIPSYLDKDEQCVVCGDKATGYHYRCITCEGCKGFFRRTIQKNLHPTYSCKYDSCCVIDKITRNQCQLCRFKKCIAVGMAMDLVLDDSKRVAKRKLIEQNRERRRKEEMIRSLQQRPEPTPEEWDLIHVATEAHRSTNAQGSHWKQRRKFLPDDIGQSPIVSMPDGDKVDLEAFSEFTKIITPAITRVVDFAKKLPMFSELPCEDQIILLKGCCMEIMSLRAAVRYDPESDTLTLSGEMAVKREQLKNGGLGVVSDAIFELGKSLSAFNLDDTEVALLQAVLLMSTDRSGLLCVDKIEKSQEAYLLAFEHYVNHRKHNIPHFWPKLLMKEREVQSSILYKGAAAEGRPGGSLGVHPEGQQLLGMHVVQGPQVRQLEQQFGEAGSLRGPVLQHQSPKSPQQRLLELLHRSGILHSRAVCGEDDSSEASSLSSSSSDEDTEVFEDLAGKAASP", "assay": "cell_activity", "details": "TRE-CAT, T3; which TRE (rGH or palindromic) not stated"}, "[39]": {"molecular_target": "G-gal-G (hGR with DNA binding domain replaced by GAL4 1-74) (Homo sapiens / Saccharomyces cerevisiae) (UniProt P04150+P04386)", "sequence (P04150 other isoform, or with tags, fused parts or gaps, chain 1 of 2)": "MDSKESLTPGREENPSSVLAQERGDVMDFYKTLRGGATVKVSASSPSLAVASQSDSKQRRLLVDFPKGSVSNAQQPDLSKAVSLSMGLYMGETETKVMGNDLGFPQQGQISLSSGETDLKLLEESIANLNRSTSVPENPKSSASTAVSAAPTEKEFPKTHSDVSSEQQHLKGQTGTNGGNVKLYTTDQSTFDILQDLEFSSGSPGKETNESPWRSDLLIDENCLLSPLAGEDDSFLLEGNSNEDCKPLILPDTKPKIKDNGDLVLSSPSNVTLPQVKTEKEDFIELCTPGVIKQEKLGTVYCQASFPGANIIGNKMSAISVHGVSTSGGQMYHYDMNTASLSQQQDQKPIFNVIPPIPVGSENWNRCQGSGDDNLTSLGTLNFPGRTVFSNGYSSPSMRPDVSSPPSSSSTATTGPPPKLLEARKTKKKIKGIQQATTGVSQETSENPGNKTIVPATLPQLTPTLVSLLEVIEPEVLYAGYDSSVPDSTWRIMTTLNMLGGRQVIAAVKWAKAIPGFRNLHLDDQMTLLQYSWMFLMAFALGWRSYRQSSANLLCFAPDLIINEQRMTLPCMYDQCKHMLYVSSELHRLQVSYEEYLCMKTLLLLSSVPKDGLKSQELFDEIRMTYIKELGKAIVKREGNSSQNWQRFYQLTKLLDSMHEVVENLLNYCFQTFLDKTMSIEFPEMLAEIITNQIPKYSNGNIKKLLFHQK", "sequence (P04386 1-74, chain 2 of 2)": "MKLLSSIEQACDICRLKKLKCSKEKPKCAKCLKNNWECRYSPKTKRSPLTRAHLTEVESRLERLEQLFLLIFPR", "assay": "cell_activity"}, "[40]": {"molecular_target": "GAL4 (Saccharomyces cerevisiae) (UniProt P04386)", "sequence (P04386 whole entry, the tested form may be a part)": "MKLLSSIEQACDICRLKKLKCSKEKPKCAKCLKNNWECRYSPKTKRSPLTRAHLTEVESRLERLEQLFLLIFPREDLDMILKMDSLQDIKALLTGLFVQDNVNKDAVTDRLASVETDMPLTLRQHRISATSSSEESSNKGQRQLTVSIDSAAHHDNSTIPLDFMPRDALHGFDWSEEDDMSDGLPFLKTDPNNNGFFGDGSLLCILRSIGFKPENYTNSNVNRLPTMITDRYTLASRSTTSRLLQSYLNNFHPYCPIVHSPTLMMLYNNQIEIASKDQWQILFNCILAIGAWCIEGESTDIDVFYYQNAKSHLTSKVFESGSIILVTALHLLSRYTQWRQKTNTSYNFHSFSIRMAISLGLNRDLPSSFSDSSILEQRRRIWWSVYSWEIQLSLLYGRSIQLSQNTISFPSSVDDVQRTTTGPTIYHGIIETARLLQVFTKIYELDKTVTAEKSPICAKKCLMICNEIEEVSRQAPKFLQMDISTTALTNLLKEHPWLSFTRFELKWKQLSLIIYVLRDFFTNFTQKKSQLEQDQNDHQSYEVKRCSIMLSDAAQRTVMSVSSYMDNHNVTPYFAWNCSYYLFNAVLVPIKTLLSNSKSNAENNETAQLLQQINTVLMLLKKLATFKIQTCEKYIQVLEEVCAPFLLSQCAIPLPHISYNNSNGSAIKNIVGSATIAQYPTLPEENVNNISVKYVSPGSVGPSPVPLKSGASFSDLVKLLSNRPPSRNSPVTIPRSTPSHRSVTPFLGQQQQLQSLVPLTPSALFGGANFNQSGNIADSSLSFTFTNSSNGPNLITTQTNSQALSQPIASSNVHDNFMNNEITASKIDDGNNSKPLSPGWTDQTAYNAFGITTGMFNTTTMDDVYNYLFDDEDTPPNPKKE", "assay": "cell_activity", "details": "CAT reporter"}}, "data": [{"substance": "GRE-containing DNA fragment", "values": [{"measurement": "binding signal", "setting": "[1]", "value": 40, "unit": "%"}, {"measurement": "binding signal", "setting": "[2]", "value": 50, "unit": "%"}, {"measurement": "binding signal", "setting": "[3]", "value": 2, "unit": "%"}, {"measurement": "binding signal", "setting": "[4]", "value": "< 1", "unit": "%"}, {"measurement": "binding signal", "setting": "[5]", "value": 6, "unit": "%"}, {"measurement": "binding signal", "setting": "[6]", "value": 2, "unit": "%"}, {"measurement": "binding signal", "setting": "[7]", "value": 1, "unit": "%"}, {"measurement": "binding signal", "setting": "[8]", "value": 75, "unit": "%"}, {"measurement": "binding signal", "setting": "[9]", "value": 30, "unit": "%"}, {"measurement": "binding signal", "setting": "[10]", "value": 6, "unit": "%"}, {"measurement": "binding signal", "setting": "[11]", "value": "< 1", "unit": "%"}, {"measurement": "binding signal", "setting": "[12]", "value": 1, "unit": "%"}, {"measurement": "binding signal", "setting": "[13]", "value": 50, "unit": "%"}, {"measurement": "binding signal", "setting": "[14]", "value": 95, "unit": "%"}, {"measurement": "binding signal", "setting": "[15]", "value": 3, "unit": "%"}, {"measurement": "binding signal", "setting": "[16]", "value": 1, "unit": "%"}, {"measurement": "binding signal", "setting": "[17]", "value": 90, "unit": "%"}, {"measurement": "binding signal", "setting": "[18]", "value": 1, "unit": "%"}, {"measurement": "binding signal", "setting": "[19]", "value": 1, "unit": "%"}, {"measurement": "binding signal", "setting": "[20]", "value": 6, "unit": "%"}, {"measurement": "binding signal", "setting": "[21]", "value": 1, "unit": "%"}, {"measurement": "binding signal", "setting": "[22]", "value": "< 1", "unit": "%"}, {"measurement": "binding signal", "setting": "[23]", "value": 60, "unit": "%"}, {"measurement": "binding signal", "setting": "[24]", "value": 1, "unit": "%"}, {"measurement": "binding signal", "setting": "[25]", "value": 8, "unit": "%"}, {"measurement": "binding signal", "setting": "[26]", "value": 1, "unit": "%"}, {"measurement": "binding signal", "setting": "[27]", "value": 60, "unit": "%"}, {"measurement": "binding signal", "setting": "[28]", "value": 4, "unit": "%"}, {"measurement": "binding signal", "setting": "[29]", "value": 40, "unit": "%"}, {"measurement": "binding signal", "setting": "[30]", "value": "< 1", "unit": "%"}, {"measurement": "binding signal", "setting": "[31]", "value": "< 1", "unit": "%"}, {"measurement": "binding signal", "setting": "[32]", "value": 1, "unit": "%"}, {"measurement": "binding signal", "setting": "[33]", "value": 100, "unit": "%"}, {"measurement": "binding signal", "setting": "[34]", "value": "< 1", "unit": "%"}, {"measurement": "binding signal", "setting": "[35]", "value": "< 1", "unit": "%"}, {"measurement": "binding signal", "setting": "[36]", "value": 6, "unit": "%"}, {"measurement": "binding signal", "setting": "[37]", "value": 10, "unit": "%"}]}, {"substance": "TCAGGTCATGACCTGA (double strand) [TRE of TRE-CAT reporter (palindromic TRE)]", "values": [{"measurement": "activity", "setting": "[38]", "value": 100, "unit": "%"}]}, {"substance": "deltaMTV-CAT promoter (no GAL4 site, GREs deleted)", "values": [{"measurement": "activity", "setting": "[39]; relative to deltaMTV-GAL-CAT, possible cryptic site", "value": 5, "unit": "%"}]}, {"substance": "deltaMTV-GAL-CAT promoter with synthetic GAL4 site 17MX", "values": [{"measurement": "activity", "setting": "[39]; with hormone", "value": 500, "unit": "fold"}, {"measurement": "activity", "setting": "[40]", "value": 20, "unit": "fold"}]}]}
